Assay [1] has as its target T1, Homo sapiens AXL-Mus musculus FN1 domain (p33-AXL-mFN1) (human-mouse chimera, UniProt P30530 26-894).
T1 construct: Expressed in HEK293F cells; also called hsAXL-mmFN1; TH1021-mFN1
T1 chain: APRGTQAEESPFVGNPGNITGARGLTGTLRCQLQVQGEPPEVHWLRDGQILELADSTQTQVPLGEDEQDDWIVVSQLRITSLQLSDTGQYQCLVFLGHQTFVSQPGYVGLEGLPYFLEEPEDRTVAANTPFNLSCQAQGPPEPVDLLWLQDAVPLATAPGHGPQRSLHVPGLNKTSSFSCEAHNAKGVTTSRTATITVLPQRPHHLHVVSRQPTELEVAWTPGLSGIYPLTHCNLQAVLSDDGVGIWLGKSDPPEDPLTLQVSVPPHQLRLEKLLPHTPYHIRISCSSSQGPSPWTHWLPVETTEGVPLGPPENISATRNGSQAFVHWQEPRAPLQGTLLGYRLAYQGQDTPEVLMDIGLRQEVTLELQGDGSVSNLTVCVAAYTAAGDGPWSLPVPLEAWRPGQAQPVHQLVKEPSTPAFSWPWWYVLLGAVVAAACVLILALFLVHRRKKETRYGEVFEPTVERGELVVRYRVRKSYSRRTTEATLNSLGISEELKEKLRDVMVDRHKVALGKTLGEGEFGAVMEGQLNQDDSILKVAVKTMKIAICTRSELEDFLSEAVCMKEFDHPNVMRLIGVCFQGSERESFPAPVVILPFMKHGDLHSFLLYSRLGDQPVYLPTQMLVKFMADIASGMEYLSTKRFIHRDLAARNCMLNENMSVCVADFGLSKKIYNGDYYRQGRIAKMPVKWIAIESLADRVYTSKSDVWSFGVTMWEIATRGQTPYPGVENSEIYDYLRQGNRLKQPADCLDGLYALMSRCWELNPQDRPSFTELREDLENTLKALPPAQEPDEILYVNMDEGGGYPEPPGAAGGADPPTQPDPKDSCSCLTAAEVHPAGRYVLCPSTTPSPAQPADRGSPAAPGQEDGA
Kind of assay: flow cytometry, 1 µg/mL antibody, transfected HEK293F cells.

In assay [2] the target is T2, Homo sapiens AXL-Mus musculus Ig1 domain (p33-AXL-mIg1) (human-mouse chimera, UniProt P30530 8-894).
T2 construct: Expressed in HEK293F cells; also called hsAXL-mmIg1; hsAXL-mmIgl
T2 chain: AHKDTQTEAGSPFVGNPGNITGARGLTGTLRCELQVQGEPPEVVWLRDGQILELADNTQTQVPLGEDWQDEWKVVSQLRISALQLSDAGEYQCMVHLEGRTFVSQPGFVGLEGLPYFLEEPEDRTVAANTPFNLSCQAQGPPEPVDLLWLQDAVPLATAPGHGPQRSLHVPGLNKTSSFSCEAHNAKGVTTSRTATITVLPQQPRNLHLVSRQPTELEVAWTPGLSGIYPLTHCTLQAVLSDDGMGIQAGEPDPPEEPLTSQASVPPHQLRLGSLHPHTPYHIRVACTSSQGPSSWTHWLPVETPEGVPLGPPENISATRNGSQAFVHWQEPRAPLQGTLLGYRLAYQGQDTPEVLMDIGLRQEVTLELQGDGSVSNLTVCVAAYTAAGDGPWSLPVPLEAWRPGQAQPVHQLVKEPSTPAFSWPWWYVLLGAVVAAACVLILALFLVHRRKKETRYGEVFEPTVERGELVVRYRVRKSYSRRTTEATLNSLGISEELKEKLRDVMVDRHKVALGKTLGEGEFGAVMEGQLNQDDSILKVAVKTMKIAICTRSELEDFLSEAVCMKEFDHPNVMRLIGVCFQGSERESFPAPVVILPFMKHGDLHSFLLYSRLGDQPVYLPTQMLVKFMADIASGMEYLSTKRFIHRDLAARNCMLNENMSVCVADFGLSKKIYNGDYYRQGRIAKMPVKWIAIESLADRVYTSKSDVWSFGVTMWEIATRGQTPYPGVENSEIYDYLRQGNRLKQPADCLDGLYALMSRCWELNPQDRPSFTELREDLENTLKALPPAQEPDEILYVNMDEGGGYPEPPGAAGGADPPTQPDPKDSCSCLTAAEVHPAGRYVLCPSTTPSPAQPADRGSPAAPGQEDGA
The assay is described as above.

Assay [3] concerns the target T3, Homo sapiens AXL-Mus musculus FN2 domain (p33-AXL-mFN2) (human-mouse chimera, UniProt P30530 26-894).
T3 construct: Expressed in HEK293F cells; also called hsAXL-mmFN2; TH1021-mFN2
T3 chain: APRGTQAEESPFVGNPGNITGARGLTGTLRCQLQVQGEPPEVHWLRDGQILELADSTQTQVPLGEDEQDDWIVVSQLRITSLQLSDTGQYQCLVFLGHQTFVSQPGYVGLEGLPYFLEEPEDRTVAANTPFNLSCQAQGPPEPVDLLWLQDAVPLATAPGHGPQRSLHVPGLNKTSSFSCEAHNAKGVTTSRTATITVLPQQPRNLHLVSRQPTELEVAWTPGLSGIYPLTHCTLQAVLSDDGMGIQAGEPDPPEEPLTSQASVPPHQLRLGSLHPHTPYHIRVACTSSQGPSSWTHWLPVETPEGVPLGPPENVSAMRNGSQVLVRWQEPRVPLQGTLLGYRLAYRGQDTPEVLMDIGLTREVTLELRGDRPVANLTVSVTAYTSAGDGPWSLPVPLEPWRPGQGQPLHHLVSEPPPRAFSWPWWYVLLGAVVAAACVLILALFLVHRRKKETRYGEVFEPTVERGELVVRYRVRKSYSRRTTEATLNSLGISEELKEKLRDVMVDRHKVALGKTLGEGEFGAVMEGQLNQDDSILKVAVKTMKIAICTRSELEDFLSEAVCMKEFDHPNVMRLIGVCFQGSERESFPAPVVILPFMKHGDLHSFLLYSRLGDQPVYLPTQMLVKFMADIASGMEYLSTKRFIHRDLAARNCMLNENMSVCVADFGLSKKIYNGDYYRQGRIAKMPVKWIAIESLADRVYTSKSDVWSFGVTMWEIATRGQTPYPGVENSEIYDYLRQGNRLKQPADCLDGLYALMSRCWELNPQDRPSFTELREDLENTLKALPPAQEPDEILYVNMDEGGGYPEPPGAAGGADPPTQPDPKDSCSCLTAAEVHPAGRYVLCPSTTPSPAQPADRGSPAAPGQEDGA
The description is as above.

For a further assay, the target named is T4, human AXL (full length) (human, UniProt P30530 26-894).
T4 construct: also called TH1021-AXL; TH1021-hAXL
Nature of the assay: flow cytometry, HEK293T cells transiently transfected with human AXL. In general terms: In flow cytometry, cells or beads pass a laser one at a time.

Assay [4] has as its target T5, Homo sapiens AXL-Mus musculus Ig2 domain (p33-AXL-mIg2) (human-mouse chimera, UniProt P30530 26-894).
T5 construct: Expressed in HEK293F cells; also called hsAXL-mmIg2; TH1021-mIg2
T5 chain: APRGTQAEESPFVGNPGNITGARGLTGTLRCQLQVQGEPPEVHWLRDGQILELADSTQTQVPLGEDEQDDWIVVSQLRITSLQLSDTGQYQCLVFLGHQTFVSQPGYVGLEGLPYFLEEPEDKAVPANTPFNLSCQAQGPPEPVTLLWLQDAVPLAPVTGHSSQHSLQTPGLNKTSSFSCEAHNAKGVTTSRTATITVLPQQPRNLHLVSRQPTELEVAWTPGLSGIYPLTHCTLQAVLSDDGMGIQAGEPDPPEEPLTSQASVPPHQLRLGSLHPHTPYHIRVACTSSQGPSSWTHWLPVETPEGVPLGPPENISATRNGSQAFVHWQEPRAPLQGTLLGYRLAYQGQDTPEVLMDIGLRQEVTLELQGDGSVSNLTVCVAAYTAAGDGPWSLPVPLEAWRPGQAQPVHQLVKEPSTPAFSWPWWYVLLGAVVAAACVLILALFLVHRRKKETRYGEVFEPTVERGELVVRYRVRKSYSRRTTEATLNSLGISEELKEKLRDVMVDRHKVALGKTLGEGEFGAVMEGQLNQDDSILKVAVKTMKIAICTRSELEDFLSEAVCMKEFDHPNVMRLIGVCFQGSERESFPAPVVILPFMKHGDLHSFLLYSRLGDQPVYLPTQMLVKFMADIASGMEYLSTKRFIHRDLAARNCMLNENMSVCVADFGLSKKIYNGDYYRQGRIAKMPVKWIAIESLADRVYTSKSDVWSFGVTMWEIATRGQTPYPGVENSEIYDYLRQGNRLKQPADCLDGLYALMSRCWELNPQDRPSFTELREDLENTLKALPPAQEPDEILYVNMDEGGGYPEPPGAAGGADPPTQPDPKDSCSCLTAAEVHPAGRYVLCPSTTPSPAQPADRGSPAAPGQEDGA
Nature of the assay: flow cytometry, 1 µg/mL antibody, transfected HEK293F cells.

As a reminder, the EC50 (read off the curve) is the concentration giving half of the maximal effect.

B1: IgG1-AXL-171 (antibody, V domains shown)
VH: EVQLLESGGGLVQPGGSLRLSCAASGFTFSSYAMSWVRQAPGKGLEWVSDISVSGGSTYYADSVKGRFTISRDNSKNTLYLQMNSLRAEDTAVYYCAKEGYIWFGESLSYAFDIWGQGTMVTVSS
VL: not shown
As to B1, the binding result in assay [1], in assay [2] and in assay [3] was “binds” in each case.

B2: IgG1-AXL-183-A-vcDuo3 (antibody, V domains shown)
VH: QVQLQQWGAGLLKPSETLSLTCAVYGGSFSGYYWSWIRQPPGKGLEWIGEINQSGSTNYNPSLKSRVTISVDTSKNQFSLKLSSVTAADTSVYYCASGNWDHFFDYWGQGTLVTVSS
VL: DIQMTQSPSSVSASVGDRVTITCRASQGISSWLAWYQHKPGKAPKLLIYATSSLQSGVTSRFSGSGSGTDFTLTISSLQPEDFATYYCQQAKSFPWTFGQGTKVEIK
modifications: drug-linker on lysine(s); chain and position not given
notes: also called IgG1-AXL-183-vcDuostatin3; IgG1-AXL-183-vcDuo3
As for B2, the “EC50 (read off the curve)” value with human AXL (full length) was approximately 0.2 µg/mL.

B3: IgG1-AXL-148-A-vcDuo3 (antibody, V domains shown)
VH: EVQLLESGGGLVQPGGSLRLSCAASGFTFSSYAMTWVRQAPGKGLEWVSAISISGGSTFYADSVKGRFTISRDNSKNTLYLQMNSLRAEDTAVYYCRGYSGYVYDAFDFWGQGTMVTVSS
VL: DIQMTQSPSSLSASVGDRVTITCRASQGISNWLAWYQQKPEKAPKSLIYAASSLQSGVPSRFSGSGSGTDFTLTISSLQPEDFATYYCQQYNSYPLTFGGGTKVEIK
modifications: drug-linker on lysine(s); chain and position not given
notes: also called IgG1-AXL-148-vcDuostatin3; IgG1-AXL-148-vcDuo3
As for B3, the binding result with human AXL (full length) is “binds”.

B4: IgG1-AXL-154 (antibody, V domains shown)
VH: EVQLLDSGGGLVQPGGSLRLSCAASGFTFSSYAMSWVRQAPGKGLEWVSAISIGGGNAYYADSVKGRFTISRDNSKNTLYLQMNSLRAADTAVYYCAKPGFIMVRGPLDYWGQGALVTVSS
VL: not shown
Take B4: the binding result in assay [2], in assay [4] and in assay [3] was “binds” in each case.

(Values after US20180326084A1 (Genmab, published 2018).)
